# Assay results reported in US20240122985A1, “ANTIBODIES, COMBINATIONS COMPRISING ANTIBODIES, BIOMARKERS, USES & METHODS” (KYMAB LIMITED, priority 2016, published 2024).
# “And” between values parts separate entries of the source, which are not always exact repeats. Identical values can stand only once.
# Test system: Rhesus Macaque Graft versus Host Disease (GvHD) model
# Description: The effectiveness of antibody 2D10 IgG4PE as a monotherapy prophylactic for the prevention of GvHD was examined in a Rhesus Macaque model of haploidentical hematopoietic stem cell transplantation (HSCT).
# All transplants were between half-sibling pairs that are mismatched at one MHC haplotype (“haploidentical-HCTs”). Recipient animals had irradiation based pre-myeloablative pre-transplant conditioning using a linear accelerator. Dose rate: 7cGy/min. Dose 1020 cGy given in 4 fractions. The leukapheresis donor animal underwent GCSF mobilisation and underwent leukapheresis using a Spectra Optia apheresis machine.
# 2D10 IgG4PE was dosed at 10 mg/kg i.v. according to a planned dosing schedule to take place on Day −2, Day+5, Day+12, Day+19, Day+26, Day+33, Day+40, Day+47 post-transplant.
# Samples were taken during the course of the study to monitor donor chimerism (Table 4) and white blood cell counts. The primary end point was based on survival, with a survival to 15 days deemed to be a sign of successful prophylactic therapy (and compared to the documented survival of 6-8 days with no prophylaxis; Miller et al. 2010, supra). Though full pathology and histology with GvHD grading scores, markers of T-cell proliferation and activation (such as Ki-67 and granzyme B) and gene array analysis are planned, they were not available for inclusion at the time of drafting.
# Scoring of clinical symptoms was based on observational assessments and clinical chemistry, classified according to the criteria set out in Table 5.
# A further rhesus macaque GvHD study was conducted to determine the effect of combined post-HSCT prophylaxis with 2D10 IgG4PE and rapamycin. The study was performed as described in Example 7, with dosing as follows: 2D10 IgG4PE was administered i.v. at 10 mg/kg on Day −2, Day +5, Day+12, Day+19, Day+26, Day+33, Day+40, Day+47 and Day+56 post-transplant. Rapamycin was administered at a loading dose of 0.1 mg/kg i.m. on Day −14, followed by daily i.m. maintenance doses of 0.025 mg/kg until the scheduled termination of the study at Day+100. Rapamycin dosing was adjusted to maintain serum trough levels within the range 5-15 ng/mL.
# This was a cohort study in NHP designed to determine the clinical, immunologic and molecular outcomes of OX40L blockade during allogeneic HCT. Two cohorts of transplant recipients were studied: (1) Allogeneic transplants using the OX40L-blocking human IgG4-PE antibody 1D05 (described as ‘KY1005’ in this Example 11) as monotherapy for GVHD prophylaxis (abbreviated as ‘KY1005’; n=4). KY1005 was given at a dose of 10 mg/kg starting on Days −2 and then once weekly until discontinuation on Days 54 (FIG. 8E). […] (2) Allogeneic transplants using KY1005 in combination with Sirolimus (Rapamycin) ([…]) for GVHD prophylaxis (abbreviated as ‘KY1005/Siro’; n=5). KY1005 was given at a dose of 10 mg/kg starting on Days −2 and then once weekly until discontinuation on Days 54 (FIG. 8P). […] These two OX40L-blockade groups were compared to the following cohorts, aspects of which have been described previously (Furlan et al., 2015; Furlan et al., 2016; Miller et al., 2010) (1) Autologous transplants (abbreviated as ‘Auto’, n=6 for clinical and flow cytometric data and n=4 for transcriptomic analysis) (2); Allogeneic transplants with no GVHD prophylaxis (abbreviated as‘No Rx’, n=11 for clinical and flow cytometric data and n=4 for transcriptomic analysis). (3) Allogeneic transplants using Sirolimus monotherapy for GVHD prophylaxis (LC laboratories, abbreviated as ‘Siro’, n=11 for flow cytometric analysis, n=4 for transcriptomic analysis).
# [1] = Rhesus HSCT, 2D10 IgG4PE 10 mg/kg i.v. weekly from Day −2, one line per animal, brackets = experimental failure
Molecule,MST (Example 11 (FIG. 7C)),"GVHD-free survival (Example 11, NHP (FIG. 7C))","Survival (Table 8, per animal, Seattle)","median survival time, MST (Example 9, post-HSCT prophylaxis, Rhesus macaque (FIG. 7))",Survival Duration [1],Survival Duration (days) [1],survival of animals after allogeneic HCT (Rhesus macaque),"Gross necropsy, visceral GvHD (animal #4)","adverse dosing side effects (rhesus monkey, in vivo, iv, 10 mg/kg)"
"KY1005: antibody used for GVHD immunoprophylaxis in NHP, measured by antigen (OX40L) capture assay; not tied to 02D10 in this part",19.5 days,19.5 days,16 day (2×) and 26 day and 23 day,,,,,,
"2D10 IgG4PE: fully human anti-human OX40L monoclonal antibody, human IgG4-PE; VH Seq ID No:34, VL Seq ID No:48; 2D10-1 to -4 are stable pools (antibody, V domains shown, human IgG4-PE constant regions; 02D10 - VH Amino Acid Sequence; 02D10 - VL Amino Acid Sequence) VH: EVQLVESGGGLVQPGGSLRLSCAASGFTFSNYAMNWVRQAPGKGLEWVSTISGSGGATRYADSVKGRFTISRDNSRNTVYLQMNSLRVEDTAVFYCTKDRLIMATVRGPYYYGMDVWGQGTTVTVSS VL: DIQMTQSPSSLSASVGDRVTITCRASQSISSYLNWYQQKPGKAPNLLIYAASSLQSGVPSRFSGSGSETDFTLTISSLQPEDFATYYCQQSHSVSFTFGPGTKVDIK",,,,19 days,22 days and 16 days (2×) and 26 days,(24) days,prolonged survival,no overt visceral GvHD,No serious adverse dosing side effects
